The source of these data is article PMC12282080, “Molecular mechanism of potently neutralizing human monoclonal antibodies against severe fever with thrombocytopenia virus infection” (Journal of Virology, 2025).

Conditions in all cases: both partners purified
Assay [1] deals with T1, SFTSV Gn head (positions 19-337), C3 genotype (SDTA1/China) (SFTSV (Dabie bandavirus), strain SDTA1, …, UniProt A0A1S6K8S9, strain).
T1 construct: source: HEK293F cells (Sino Biological), purified (HisTrap, size exclusion)
Kind of assay: SPR.

Assay [2] has as its target T2, SFTSV Gn head (positions 19-337), C2 genotype (P24-Vero_2021/China) (SFTSV (Dabie bandavirus), strain …, strain).
T2 construct: source: HEK293F cells (Sino Biological), purified (HisTrap, size exclusion)
Kind of assay: SPR.

The target in assay [3] is T3, SFTSV Gn head (positions 19-337), J1 genotype (KU18-5/Japan) (SFTSV (Dabie bandavirus), strain …, strain).
T3 construct: source: HEK293F cells (Sino Biological), purified (HisTrap, size exclusion)
Briefly: SPR. A general note: Surface plasmon resonance follows binding to a sensor surface in real time, without labels.

Assay [4] has as its target T4, SFTSV Gn head (as crystallised with the Fabs) (SFTSV (Dabie bandavirus), strain SDTA1, …).
T4 construct: also called Gn protein
Briefly: crystal structure.

The target of assay [5] is SFTSV Gn glycoprotein (G19-K452, C3 genotype) (SFTSV (Dabie bandavirus), strain SDTA1, …, UniProt A0A1S6K8S9, strain). Briefly: BLI. In general terms: BLI is a label-free optical method that tracks binding on a fibre tip over time.

B1: SD12 monoclonal antibody (human IgG1) (antibody, V domains shown)
VH: EVQLLESGGGLVQPGGSLRLSCAASGFIFSSYAMSWVRQAPGKGLEWVSAISGSGGSTYYADSVKGRFTISRDNSKNTLYLQMNSLRDEDTAVYYCAKDRSYVSSGFFDDWGQGTLVTVSS
VL: DIQMTQSPSSLSASVGDRVTITCQASQDISNYLNWYQQRPGKAPKLLIFEASNLETGVPSRFSGSGSGTDFTFTISSLQPEDIATYYCQQYENLLYTFGQGTKLEIK
notes: IgG1; also called mAb SD12
In the case of B1, the Kd came out at 87800 pM in assay [1], 74100 pM in assay [2] and 60200 pM in assay [3].

B2: SD12 Fab (Fab, V domains shown)
VH: EVQLLESGGGLVQPGGSLRLSCAASGFIFSSYAMSWVRQAPGKGLEWVSAISGSGGSTYYADSVKGRFTISRDNSKNTLYLQMNSLRDEDTAVYYCAKDRSYVSSGFFDDWGQGTLVTVSS
VL: DIQMTQSPSSLSASVGDRVTITCQASQDISNYLNWYQQRPGKAPKLLIFEASNLETGVPSRFSGSGSGTDFTFTISSLQPEDIATYYCQQYENLLYTFGQGTKLEIK
notes: source: purified
For the molecule B2, the binding result in assay [4] is “binds”.

B3: SD4 monoclonal antibody (human IgG1) (antibody, V domains shown)
VH: QVQLVESGGGVVQPGRSLRLSCAASGFPFSGYGMHWVRQAPGKGLEWVAVISYDGSEKNYADSVKGRFTISRDNSKNTLYLQMNSLRVEDTAVYYCAKDRDYYGSGFYDYWGQGTLVTVSS
VL: DIQMTQSPSSLSASVGDRVTITCQASQHISNHLNWYQQKPGTAPTLLIYEASNLETGVPSRFSGSGSGTDFSFTISSLRPEDFATYYCQQYDNFPLTFGPGTTMDIK
notes: also called mAb SD4
With B3, the Kd came out at 96 pM in assay [5], 82.7 pM in assay [1], 32.1 pM in assay [2] and 62.8 pM in assay [3].

B4: SD4 Fab (Fab, V domains shown)
VH: QVQLVESGGGVVQPGRSLRLSCAASGFPFSGYGMHWVRQAPGKGLEWVAVISYDGSEKNYADSVKGRFTISRDNSKNTLYLQMNSLRVEDTAVYYCAKDRDYYGSGFYDYWGQGTLVTVSS
VL: DIQMTQSPSSLSASVGDRVTITCQASQHISNHLNWYQQKPGTAPTLLIYEASNLETGVPSRFSGSGSGTDFSFTISSLRPEDFATYYCQQYDNFPLTFGPGTTMDIK
notes: source: purified
For B4, the binding result in assay [4] is on record as “binds”.

B5: SD4-S monoclonal antibody (human IgG1) (antibody, V domains shown)
VH: QVQLVESGGGVLQPGRSLRLSCAASGFTFSGYGMHWVRQAPGKGLEWVAVISYDGSEKNYGDSVKGRFTISRDNSKNTLYLQINSLRTEDRAVYYCAKDRDYFGSGFFDYWGQGTLVTVSS
VL: DIQMTQSPSSLSASVGDRVTITCQASQDITKYLNWYQQKPGKAPKLLIFEASNLETGVPSRFSGSGSGTDFTFTISSLQPEDFATYYCQQYGDFPLTFGGGTKVEIK
In the case of B5, the binding result in assay [5] is “binds”.

B6: SD4-X monoclonal antibody (human IgG1) (antibody, V domains shown)
VH: QVQLVESGGGVVQPGRSLRLSCAASGFTFSSYGMHWVRQAPGKGLEWVAVISYDGSNKYYADSVKGRFTISRDNSKNTLYLQMNSLRAEDTAVYYCAKDRDYYGSGFFDYWGQGTLVTVSS
VL: DIQMTQSPSSLSASVGDRVTITCQASQDISNHLNWYQEKPGKVPKLLIYEASNVETGVPSRFSGSGSGTDFTFTISSLQPEDIATYYCQQYDNLPYTFGQGTKLEIK
As to B6, in assay [5], the binding result was “binds”.

B7: SD22 monoclonal antibody (human IgG1) (antibody, V domains shown)
VH: QVQLVESGGGVVQPGRSLRLSCAASGFTFSGFGMHWVRQAPGKGLEWVALISYDGSDTYYSDSVKGRFTISRDNSKNTLYLQLKSLRPDDTAVYYCVGDRDYFGSGFFDHWGQGTLVTVSS
VL: DIQMTQSPSSLSASIGDRVTITCRASRHITNHLNWYQHKPGRAPKLLIYEASNLQAGVPSRFSGSGSGTDFTFTISSLQPEDFATYYCQQYDNLPPAFGGGTKVDIK
notes: IgG1; germline IGHV3-30; also called mAb SD22
Take B7: the values for the equilibrium dissociation constant (Kd) in assay [1], in assay [2] and in assay [3] were 54.2 pM, 51.5 pM and 55.7 pM, respectively.

B8: SD22 Fab (Fab, V domains shown)
VH: QVQLVESGGGVVQPGRSLRLSCAASGFTFSGFGMHWVRQAPGKGLEWVALISYDGSDTYYSDSVKGRFTISRDNSKNTLYLQLKSLRPDDTAVYYCVGDRDYFGSGFFDHWGQGTLVTVSS
VL: DIQMTQSPSSLSASIGDRVTITCRASRHITNHLNWYQHKPGRAPKLLIYEASNLQAGVPSRFSGSGSGTDFTFTISSLQPEDFATYYCQQYDNLPPAFGGGTKVDIK
notes: source: purified
As for B8, the binding result in assay [4] is “binds”.

A word on the Kd: it is a measure of binding affinity in units of concentration.
